{
  "source": "paper PMC10206564",
  "biological_target": "His954 (UniProt position 954, […])",
  "test": "NMR",
  "conditions": "30 mM NaCl plus 20 mM sodium phosphate, Folded post-fusion six-helix bundle (6HB) state, 0.15 mM protein, no lipid",
  "data": [
    {"substance": "Spike glycoprotein S2 HR1-HR2 fusion core ('Core') Q954H variant (Severe acute respiratory syndrome coronavirus 2 (SARS-CoV-2); Q954H)", "values": [
      {"measurement": "pKa", "result": 6.40}
    ]}
  ]
}
